# From US20210162028A1, “Methods for Inducing Intermittent Fasting and Modulating Autophagy” (The Hong Kong Polytechnic University, priority 2019, published 2021)
# “Also recorded” adds a separate entry of the source.
# B1: N-ABD094-rhArg: recombinant human arginase fused to albumin binding domain ABD094 (SEQ ID NO: 50); engineered long-acting arginine-depleting enzyme (protein)
# chain: MHHHHHHDEAVDANSLAEAKEAANAELDSYGVSDFYKRLIDKAKTVEGVEALKDAILAALPSGSNNNNNNGSGGMSAKSRTIGIIGAPFSKGQPRGGVEEGPTVLRKAGLLEKLKEQECDVKDYGDLPFADIPNDSPFQIVKNPRSVGKASEQLAGKVAEVKKNGRISLVLGGDHSLAIGSISGHARVHPDLGVIWVDAHTDINTPLTTTSGNLHGQPVSFLLKELKGKIPDVPGFSWVTPCISAKDIVYIGLRDVDPGEHYILKTLGIKYFSMTEVDRLGIGKVMEETLSYLLGRKKRPIHLSFDVDGLDPSFTPATGTPVVGGLTYREGLYITEEIYKTGLLSGLDIMEVNPSLGKTPEEVTRTVNTAVAITLACFGLAREGNHKPIDYLNPPK
# modifications: N-ABD094-rhArg, Synthesized in the Lab
# notes: engineered long-acting arginine-depleting enzyme
# Columns and labels:
# [1] = Barnes maze test for spatial learning and memory; assay type: in vivo, mouse; conditions: DIO C57BL/6J male mice on HFD; weekly, at 43-44 weeks of treatment
# Experimental: To determine whether N-ABD094-rhArg [SEQ ID NO: 50], which can induce repetitive intermittent fasting cycles, has beneficial effects on cognitive performance, the Barnes maze test was conducted over ten days to evaluate spatial learning and memory function. The test was performed on a flat circular platform (100 cm in diameter, 1.5 cm thick, elevated 40 cm above the floor) with twenty evenly-spaced holes (7 cm in diameter) distributed around the circumference, and an escape box was placed under one of the holes. Prior to experimentation, each mouse was guided to the specific hole that was positioned over the escape box and left for 180 seconds. Subsequently, each mouse was trained to find the escape hole by placing the mouse in the center of the platform under a small black chamber for three seconds, the chamber was then lifted, and mouse was allowed to find the escape hole within 180 seconds. The platform was brightly illuminated and cooled using a desk fan as adverse stimuli. If the mouse was unable to find the target hole in the allowed time, it was guided to the escape box. Two trials were performed each day for four consecutive days as training period, after which the short- and long-term spatial memory of the mouse was probed on Day 5 and Day 10 respectively, by removing the escape box and allowing them to explore the platform for a full 180 seconds. Each trial was recorded directly over the platform. For each trial on Day 1 to 4, the time required to find the escape hole and exit the platform, and the type of exploratory pattern (random, serial, or direct) in exploring were recorded. For each probe trial on Day 5 and 10, the number of times the mice investigated each of the twenty holes was recorded over 180 seconds, with an instance of investigation defined as the localization of the snout inside a given hole.
# Spatial memory loss is a prominent feature in rodent models of type 2 diabetes and obesity [Boitard et al., 2014; Underwood and Thompson, 2016]. To investigate whether arginase treatment could prevent spatial memory loss in mice fed a HFD, DIO C57BL/6J male mice were subjected to assessment of spatial memory by Barnes maze test at 43 weeks after receiving weekly administration of N-ABD094-rhArg (SEQ ID NO: 50) starting from 17-week old.
# [2] = Blood pressure and heart rate by tail-cuff method; assay type: in vivo, mouse; conditions: DIO C57BL/6J male mice on HFD; about 600 U once a week; measured at 12 and 27 weeks
# Text: FIG. 9 illustrates that administration of N-ABD094-rhArg (SEQ ID NO: 50) to DIO male mice fed a HFD [HFD (rhArg) group] in FIG. 1 for 34 weeks could reduce heart mass, and lower blood pressure and heart rate to levels similar to that of the lean control mice [CD (vehicle) group]. (A) Heart mass. (B-E) Systolic and diastolic blood pressure (B, D) and heart rate (C, E) measured respectively at 12 weeks (B, C) and 27 weeks (D, E) after rhArg treatment by tail-cuff method using Noninvasive Blood Pressure Monitoring System (CODA Scientific). *P<0.05, one-way ANOVA followed by Bonferroni test. Data are expressed as mean±SEM.
# Other than liver, obesity is also commonly associated with lipid accumulation in the kidney (renal steatosis) and heart (cardiac steatosis), causing lipotoxicity and dysfunction of these organs. Indeed, there was an increase in kidney and heart mass in DIO mice treated with vehicle (FIG. 8A and FIG. 9A).
# LC3-II/LC3-I = experiment: Autophagic flux in liver, LC3-II/LC3-I western blot with chloroquine; assay type: in vivo, mouse; conditions: DIO male mice on HFD; 600 U once a week, 4 weeks; Day 3 of cycle
# Experimental: Ratio of LC3-II/LC3-I proteins was used as a marker of autophagy and was semiquantified by western blotting. Chloroquine (an autophagy inhibitor, CQ) was injected 5 hr to accumulate autophagosome in the liver before tissue collection. *P<0.05, one-way ANOVA followed by Bonferroni test. Data are expressed as mean±SEM, n=3 for each group.
# Autophagy is involved in cell growth, survival, development and death. Impaired autophagic flux has been linked to a variety of human pathophysiological processes, including neurodegeneration, cancer, myopathy, cardiovascular and immune-mediated disorders. There is a growing need to identify and quantify the status of autophagic flux in different pathological conditions. Autophagy is a highly dynamic and complex process that is regulated at multiple steps. Autophagic flux can be detected by LC3-II turnover using western blot analysis in the presence and absence of lysosomal degradation inhibitors, chloroquine (CQ). If autophagic flux is occurring, the level of LC3-II will increase in the presence of a lysosomal degradation inhibitor because the transit of LC3-II through the autophagic pathway will be blocked.
# [3] = system: primary culture of mouse hypothalamic neurons; experiment: Western blot of primary culture of mouse hypothalamic neurons; assay type: cell-based; conditions: 2 U/mL
# Text: The arcuate nucleus in the hypothalamus has received extensive attention as an integrator and regulator of energy homeostasis and appetite. These neurons can rapidly sense metabolic fluctuations in the blood. Others have recently implicated autophagy in central appetite regulation and leptin sensitivity (Park et al., Nature Communications. 2020; 11: 1914). Knockdown of an essential autophagy gene autophagy-related 7 (Atg7), leads to accumulation of p62 in POMC neurons, resulting in an increase in bodyweight and appetite. Besides, it has been shown that amino acid deprivation/imbalance can trigger a reduction in food intake via eIF2α/ATF4 pathway [Maurin et al., Cell Rep. 2014 Feb. 6(3): 438-444]. In our study, mature hypothalamic neurons (after 14 day in vitro culture) were exposed to vehicle or 2 U/mL N-ABD094-rhArg (SEQ ID NO: 50) for 1 hr, 4 hrs, 8 hrs or 24 hrs. After treatment, proteins were harvested from whole cell lysate of neurons and subjected to western blot analysis for examining the short-term effect of arginine depletion on hypothalamic neurons. Autophagy markers (LC3B and p62) were analyzed. […] These findings supported that N-ABD094-rhArg (SEQ ID NO: 50) induced an autophagic flux in hypothalamic neurons.
molecule,measurement,setting,value
B1,Barnes maze: exploratory pattern (search mode) on Day 1,[1],predominately used a serial-type exploratory pattern; also recorded: significantly improve their search mode
same,Barnes maze: latency to exit the platform in training period,[1],could exit the platform significantly earlier than HFD-fed mice treated with vehicle; also recorded: significantly reduce the total latency
same,Barnes maze: probe trial Day 5 (short-term memory),[1],explored the holes nearest to the target in increasing frequency with the target hole being the most-explored hole
same,Barnes maze: probe trial Day 10 (long-term memory),[1],Such trends were maintained on Day 10
same,Blood pressure and heart rate,[2],levels similar to the age-matched lean control mice
same,LC3-II/LC3-I ratio in liver upon chloroquine injection (autophagic flux),LC3-II/LC3-I,dramatic increase; also recorded: enhancement of autophagic flux
same,ATF4 level,[3]; 24 hrs,dramatic increase
same,Level of LC3B-II,[3]; after 1 hr and 4 hrs,significantly increased
same,Phosphorylation level of p70S6K1,"[3]; after 1 hr, 4 hrs, 8 hrs or 24 hrs",significantly decreased
same,Level of p62,[3]; after 4 hrs and 8 hrs,significantly decreased
same,Proportion of glycosylated POMC,[3]; after 24 hrs,significantly increased
same,Phosphorylation level of eIF2α,[3]; at 8 hrs or 24 hrs,significant increase
